Consider one molecule from paper PMC10404244, “Control of motor landing and processivity by the CAP-Gly domain in the KIF13B tail” (Nature Communications, 2023).

The assay deals with T1, tyrosinated microtubules polymerized from purified porcine brain tubulin (porcine, UniProt P02550 1-451); Q767L7 1-444, part of the tubulin labelled with biotin NHS ester and Dylight-405 (or Alexa647) NHS ester (chain and residues not told) | part of the tubulin labelled with biotin NHS ester and Dylight-405 (or …).
T1 construct: alpha-tubulin of porcine brain, mixture of isotypes and PTMs, approximately 50% tyrosinated; beta-tubulin of porcine brain, mixture of isotypes and PTMs; A polymer of alpha/beta-tubulin dimers, held on the coverslip through biotin-streptavidin; also called WT (tyrosinated) microtubules; tyrosinated MTs; source: purified from porcine brain (high-molarity PIPES procedure), polymerized with GTP, …
In words: TIRF microscopy microtubule-binding assay; KIF5B constructs on tyrosinated and detyrosinated microtubules in the presence of ADP (Supplementary Fig. 5G); read-out not told.

B1: chimeric KIF5B motor domain and stalk appended with the CAP-Gly domain from KIF13B (other)
chain: MADLAECNIKVMCRFRPLNESEVNRGDKYIAKFQGEDTVVIASKPYAFDRVFQSSTSQEQVYNDCAKKIVKDVLEGYNGTIFAYGQTSSGKTHTMEGKLHDPEGMGIIPRIVQDIFNYIYSMDENLEFHIKVSYFEIYLDKIRDLLDVSKTNLSVHEDKNRVPYVKGCTERFVCSPDEVMDTIDEGKSNRHVAVTNMNEHSSRSHSIFLINVKQENTQTEQKLSGKLYLVDLAGSEKVSKTGAEGAVLDEAKNINKSLSALGNVISALAEGSTYVPYRDSKMTRILQDSLGGNCRTTIVICCSPSSYNESETKSTLLFGQRAKTIKNTVCVNVELTAEQWKKKYEKEKEKNKILRNTIQWLENELNRWRNGETVPIDEQFDKEKANLEAFTVDKDITLTNDKPATAIGVIGNFTDAERRKCEEEIAKLYKQLDDKDEEINQQSQLVEKLKTQMLDQEELLASTRRDQDNMQAELNRLQAENDASKEEVKEVLQALEELAVNYDQKSQEVEDKTKEYELLSDELNQKSATLASIDAELQKLKEMTNHQKKRAAEMMASLLKDLAEIGIAVGNNDVKQPEGTGMIDEEFTVARLYISKMKSEVKTMVKRCKQLESTQTESNKKMEENEKELAACQLRISQHEAKIKSLTEYLQNVEQKKRQLEESVDALSEELVQLRAQEKVHEMEKEHLNKVQTANEVKQAVEQQIQSHRETHQKQISSLRDEVEAKAKLITDLQDQNQKMMLEQERLRVEHEKLKATDQEKSRKLHELTVMQDRREQARQDLKGLEETVAKELQTLHNLRKLFVQDLATRVKKSAEIDSDDTGGSAAQKQKISFLENNLEQLTKVHKQLVRDNADLRCELPKLEKRLRATAERVKALESALKEAKENASRDRKRYQQEVDRIKEAVRSKNMAQALASDSEEADEVPEWLREGEFVTVGAHKTGVVRYVGPADFQEGTWVGVELDLPSGKNDGSIGGKQYFRCNPGYGLLVRPSRVRRATGPVRRRSTGLRLGAPEARRSATLSGSATNLASLTAALAKADRSHKNPENRKSWAS
Turning to B1, the “fold binding, tyrosinated over detyrosinated microtubules (ADP)” value was approximately 16 fold.
